Assay results from patent publication US20110135645A1.

Key:
[1] = target: F protein of HMPV genogroup B2 strain (virus in plaque reduction assay) (human metapneumovirus) (UniProt Q6WB98); assay: cell-based or functional assay
[2] = target: F protein of HMPV genogroup B1 strain (virus in plaque reduction assay) (human metapneumovirus) (UniProt Q6WB98); assay: cell-based or functional assay
[3] = target: F protein of HMPV genogroup A2 strain (virus in plaque reduction assay) (human metapneumovirus) (UniProt Q6WB98); assay: cell-based or functional assay
[4] = target: F protein of HMPV genogroup A1 strain (virus in plaque reduction assay) (human metapneumovirus) (UniProt Q6WB98); assay: cell-based or functional assay
[5] = target: HMPV F ectodomain lacking the transmembrane domain (FΔTM), 6xHis-tagged, strain TN/92-4 (genogroup A2) (human metapneumovirus); assay: SPR (BIAcore 2000), HMPV FΔTM immobilized, 1:1 Langmuir fit

Substance Fab DSλ7 has a Neut. Dilution (60% plaque reduction), B2 (dilution (1:x)) [1] of less than 20, a Neut. Conc. (60% plaque reduction), B1 [2] of 2.4 µg/mL and a Neut. Dilution (60% plaque reduction), B1 (dilution (1:x)) [2] of 488. It also gave a Neut. Conc. (60% plaque reduction) [3] of 1.1 µg/mL, a Neut. Conc. (60% plaque reduction), A2 [3] of 1.1 µg/mL and a Neut. Dilution (60% plaque reduction) (dilution (1:x)) [3] of 1110. It also gave a Neut. Dilution (60% plaque reduction), A2 (dilution (1:x)) [3] of 1040, a Neut. Conc. (60% plaque reduction), A1 [4] of 9.8 µg/mL and a Neut. Dilution (60% plaque reduction), A1 (dilution (1:x)) [4] of 120. It also gave a Kd [5] of 0.984 nM and a koff [5] of 3.48e-05 s⁻¹.
